# From the supplement of paper PMC11246515
# ± gives the standard deviation of the averaged measurements.
# Experiment: total protein half-life in vivo (active degradation + dilution); higher = more stable protein
# [1] = E. coli NCM3722 delta-clpP delta-lon delta-hslV, growth: N-lim chemostat, doubling time 6 h
# [2] = E. coli NCM3722 delta-clpP, growth: N-lim chemostat, doubling time 6 h
# [3] = E. coli NCM3722 delta-hslV, growth: N-lim chemostat, doubling time 6 h
# [4] = E. coli NCM3722 delta-lon, growth: N-lim chemostat, doubling time 6 h
# [5] = E. coli NCM3722 delta-smpB, growth: N-lim chemostat, doubling time 6 h
# [6] = wild type E. coli NCM3722, growth: C-lim chemostat, doubling time 3 h
# [7] = wild type E. coli NCM3722, growth: C-lim chemostat, doubling time 6 h
# [8] = wild type E. coli NCM3722, growth: C-lim chemostat, doubling time 12 h
# [9] = wild type E. coli NCM3722, growth: N-lim chemostat, doubling time 6 h
# [10] = wild type E. coli NCM3722, growth: N-lim chemostat, doubling time 12 h
# [11] = wild type E. coli NCM3722, growth: P-lim chemostat, doubling time 6 h
# [12] = wild type E. coli NCM3722, growth: P-lim chemostat, doubling time 12 h
Sequence,total protein half-life in vivo [1],total protein half-life in vivo [2],total protein half-life in vivo [3],total protein half-life in vivo [4],total protein half-life in vivo [5],total protein half-life in vivo [6],total protein half-life in vivo [7],total protein half-life in vivo [8],total protein half-life in vivo [9],total protein half-life in vivo [10],total protein half-life in vivo [11],total protein half-life in vivo [12]
MKTRTQQIEELQKEWTQPRWEGITRPYSAEDVVKLRGSVNPECTLAQLGAAKMWRLLHGESKKGYINSLGALTGGQALQQAKAGIEAVYLSGWQVAADANLAASMYPDQSLYPANSVPAVVERINNTFRRADQIQWSAGIEPGDPRYVDYFLPIVADAEAGFGGVLNAFELMKAMIEAGAAAVHFEDQLASVKKCGHMGGKVLVPTQEAIQKLVAARLAADVTGVPTLLVARTDADAADLITSDCDPYDSEFITGERTSEGFFRTHAGIEQAISRGLAYAPYADLVWCETSTPDLELARRFAQAIHAKYPGKLLAYNCSPSFNWQKNLDDKTIASFQQQLSDMGYKFQFITLAGIHSMWFNMFDLANAYAQGEGMKHYVEKVQQPEFAAAKDGYTFVSHQQEVGTGYFDKVTTIIQGGTSSVTALTGSTEESQF [P0A9G6],3.78 ± 0.38 h,3.26 ± 0.34 h,2.33 ± 0.14 h,2.71 ± 0.22 h,2.51 ± 0.07 h,3.19 ± 0.085 h,4.78 ± 0.25 h,7.76 ± 0.96 h,3.01 ± 0.6 h,3.15 ± 0.29 h,5.05 ± 0.28 h,11.2 ± 3.2 h
MKTSVRIGAFEIDDGELHGESPGDRTLTIPCKSDPDLCMQLDAWDAETSIPALLNGEHSVLYRTRYDQQSDAWIMRLA,2.16 ± 0.13 h,1.58 h,0.651 h,1.83 ± 1.1 h,0.479 ± 0.045 h,1.04 ± 0.18 h,1.846 ± 0.018 h,2.06 h,0.85 h,0.89 h,0.882 ± 0.16 h,1.16 h
MKTYQGTHGVHILEYQSKINKLLCYLTNRYPRLIAVRVDLHYPKIVDNGDNICCFPNLEPGVISRMRESLRAKLEADRTRKVREDKRIYRCPLFIIWAKEYSESGKCHYHICLLFNKDAYYHLGDYDQDDNLRGMITGAWYSALRLERDDHPGLVHFPENCKYVLDTNSTDFQQNYQALLTRLDYLTKVESKVFGEGDRNFGCSQIEL,,,,,,,,> 16 h,,,,
MKVAKDLVVSLAYQVRTEDGVLVDESPVSAPLDYLHGHGSLISGLETALEGHEVGDKFDVAVGANDAYGQYDENLVQRVPKDVFMGVDELQVGMRFLAETDQGPVPVEITAVEDDHVVVDGNHMLAGQNLKFNVEVVAIREATEEELAHGHVHGAHDHHHDHDHDGCCGGHGHDHGHEHGGEGCCGGKGNGGCGCH [P0A9K9],4.87 ± 0.55 h,4.07 ± 0.042 h,3.46 ± 0.26 h,4.18 ± 0.1 h,3.3811 ± 0.00031 h,2.88 ± 0.18 h,4.63 ± 0.15 h,8.14 ± 0.37 h,3.47 ± 0.24 h,5.28 ± 0.73 h,4.54 ± 0.53 h,8.69 ± 0.066 h
MKVLTVFGTRPEAIKMAPLVHALAKDPFFEAKVCVTAQHREMLDQVLKLFSIVPDYDLNIMQPGQGLTEITCRILEGLKPILAEFKPDVVLVHGDTTTTLATSLAAFYQRIPVGHVEAGLRTGDLYSPWPEEANRTLTGHLAMYHFSPTETSRQNLLRENVADSRIFITGNTVIDALLWVRDQVMSSDKLRSELAANYPFIDPDKKMILVTGHRRESFGRGFEEICHALADIATTHQDIQIVYPVHLNPNVREPVNRILGHVKNVILIDPQEYLPFVWLMNHAWLILTDSGGIQEEAPSLGKPVLVMRDTTERPEAVTAGTVRLVGTDKQRIVEEVTRLLKDENEYQAMSRAHNPYGDGQACSRILEALKNNRISL,4.18 ± 0.042 h,4.52 ± 0.26 h,4.56 ± 0.14 h,4.96 ± 0.82 h,3.55 ± 0.33 h,3.23 ± 0.27 h,5.8 ± 0.64 h,10.5 ± 2.5 h,4.16 ± 0.4 h,8.18 ± 0.94 h,6.17 ± 0.78 h,10.1 ± 1.9 h
MKVLVIGNGGREHALAWKAAQSPLVETVFVAPGNAGTALEPALQNVAIGVTDIPALLDFAQNEKIDLTIVGPEAPLVKGVVDTFRAAGLKIFGPTAGAAQLEGSKAFTKDFLARHKIPTAEYQNFTEVEPALAYLREKGAPIVIKADGLAAGKGVIVAMTLEEAEAAVHDMLAGNAFGDAGHRIVIEEFLDGEEASFIVMVDGEHVLPMATSQDHKRVGDKDTGPNTGGMGAYSPAPVVTDDVHQRTMERIIWPTVKGMAAEGNTYTGFLYAGLMIDKQGNPKVIEFNCRFGDPETQPIMLRMKSDLVELCLAACESKLDEKTSEWDERASLGVVMAAGGYPGDYRTGDVIHGLPLEEVAGGKVFHAGTKLADDEQVVTNGGRVLCVTALGHTVAEAQKRAYALMTDIHWDDCFCRKDIGWRAIEREQN,5.13 ± 0.32 h,4.89 ± 0.38 h,4.3 ± 0.28 h,4.91 ± 0.24 h,4.44 ± 0.17 h,3.38 ± 0.24 h,6.37 ± 0.4 h,10.5 ± 0.14 h,4.62 ± 0.25 h,7.03 ± 0.35 h,6.097 ± 0.048 h,12.7 ± 0.7 h
